Biological target: trkA + p75 receptors on rat PC12 pheochromocytoma cells (rat) (UniProt P35739)
Assay: 125I-hNGF displacement, PC12 cells (trkA+p75), 4 C

trkA + p75 receptors on rat PC12 pheochromocytoma cells (rat), sequence (P35739 33-799, chain 1 of 2): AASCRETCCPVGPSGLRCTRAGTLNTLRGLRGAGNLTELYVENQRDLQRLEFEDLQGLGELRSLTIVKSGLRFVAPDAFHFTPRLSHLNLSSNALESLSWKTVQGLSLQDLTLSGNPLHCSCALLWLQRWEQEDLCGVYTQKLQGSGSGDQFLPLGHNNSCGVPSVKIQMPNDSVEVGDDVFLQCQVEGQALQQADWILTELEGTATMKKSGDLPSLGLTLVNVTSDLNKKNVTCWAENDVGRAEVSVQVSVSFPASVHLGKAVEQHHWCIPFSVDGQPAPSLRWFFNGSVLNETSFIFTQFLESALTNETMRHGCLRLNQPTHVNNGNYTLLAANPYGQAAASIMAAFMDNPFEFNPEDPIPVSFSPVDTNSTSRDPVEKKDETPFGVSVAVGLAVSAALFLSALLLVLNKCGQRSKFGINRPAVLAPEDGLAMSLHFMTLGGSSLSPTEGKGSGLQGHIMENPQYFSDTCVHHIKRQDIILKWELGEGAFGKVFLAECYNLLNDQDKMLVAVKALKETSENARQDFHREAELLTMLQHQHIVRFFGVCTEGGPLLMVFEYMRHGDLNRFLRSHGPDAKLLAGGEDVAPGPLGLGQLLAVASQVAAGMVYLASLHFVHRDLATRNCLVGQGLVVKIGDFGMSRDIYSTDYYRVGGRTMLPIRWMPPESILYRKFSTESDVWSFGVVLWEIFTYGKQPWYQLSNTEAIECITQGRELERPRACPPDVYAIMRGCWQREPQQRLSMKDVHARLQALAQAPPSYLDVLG
trkA + p75 receptors on rat PC12 pheochromocytoma cells (rat), sequence (P07174 30-425, chain 2 of 2, further chain): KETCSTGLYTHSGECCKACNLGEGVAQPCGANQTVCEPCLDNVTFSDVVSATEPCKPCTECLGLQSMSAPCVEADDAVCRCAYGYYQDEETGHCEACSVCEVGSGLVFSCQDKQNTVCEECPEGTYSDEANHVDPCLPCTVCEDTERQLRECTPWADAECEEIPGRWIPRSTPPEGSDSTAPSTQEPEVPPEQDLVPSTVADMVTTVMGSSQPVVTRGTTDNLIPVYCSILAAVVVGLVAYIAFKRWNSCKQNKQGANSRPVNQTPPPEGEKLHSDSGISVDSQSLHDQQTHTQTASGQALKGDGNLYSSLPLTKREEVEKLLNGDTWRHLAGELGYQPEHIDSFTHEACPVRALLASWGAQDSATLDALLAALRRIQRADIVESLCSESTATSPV

Row | IC50 | Substance
1 | 0.05 nM | hNGF (1-118) (from UniProt P01138 122-239) (ligand)
2 | 0.13 nM | hNGF (6-118) (from UniProt P01138 127-239) (ligand)
3 | 4.1 nM | hNGF (10-118) (from UniProt P01138 131-239) (ligand)
4 | 0.18 nM | hNGF Mut 1 (H4A) (from UniProt P01138 122-241) (ligand)
5 | 0.43 nM | hNGF Mut 2 (H4D) (from UniProt P01138 122-241) (ligand)
6 | 0.18 nM | hNGF Mut 3 (R9A) (from UniProt P01138 122-241) (ligand)
7 | 0.39 nM | hNGF Mut 4 (H4A, H8A, R9A) (from UniProt P01138 122-241) (ligand)
8 | 0.06 nM | mNGF (1-118) (from UniProt P01139 122-239) (ligand)

Source: patent publication US7144983
